Data as given in US20230058489A1, “COMBINATION COMPRISING A TIM-3 INHIBITOR AND A HYPOMETHYLATING AGENT FOR USE IN TREATING MYELODYSPLASTIC SYNDROME OR CHRONIC MYELOMONOCYTIC LEUKEMIA” (Novartis AG, priority 2020, published 2023).

Biological target: T1, interaction between TIM-3 and Galectin-9 (Homo sapiens, UniProt Q8TDQ0)
T1 construct: purchased R&D Systems
Assay: MesoScale competition assay, Gal9-SULFOTag binding to coated TIM-3 fusion protein
Conditions: serial dilutions, Galectin-9 SULFOTag 100 nM, FIG. 1
Protocol: TIM-3 fusion protein (R&D Systems) was coated on a standard MesoScale 96 well plate (Meso Scale Discovery) at 2 μg/ml in PBS (Phosphate Buffered Saline) and incubated for six hours at room temperature. The plate was washed three times with PBST (PBS buffer containing 0.05% Tween-20) and blocked with PBS containing 5% Probumin (Millipore) overnight at 4° C. […] The plate was then washed three times with PBST, and Galectin-9 labeled with MSD SULFOTag (Meso Scale Discovery) as per manufacturer's instructions, diluted in Assay Diluent to 100 nM, was added to the plate for one hour at room temperature on an orbital shaker. The plate was again washed three times with PBST, and Read Buffer T (1×) was added to the plate. The plate was read on MA600 Imager, and competition was assessed as a measure of the ability of the antibody to block Gal9-SULFOTag signal to TIM-3 receptor.

ability to block Gal9-SULFOTag signal to TIM-3 receptor (competition): did not
B1: Galectin-9 protein: control recombinant human Galectin-9 protein, unlabeled (protein)
chain: AFSGSQAPYLSPAVPFSGTIQGGLQDGLQITVNGTVLSSSGTRFAVNFQTGFSGNDIAFHFNPRFEDGGYVVCNTRQNGSWGPEERKTHMPFQKGMPFDLCFLVQSSDFKVMVNGILFVQYFHRVPFHRVDTISVNGSVQLSYISFQPPGVWPANPAPITQTVIHTVQSAPGQMFSTPAIPPMMYPHPAYPMPFITTILGGLYPSKSILLSGTVLPSAQRFHINLCSGNHIAFHLNPRFDENAVVRNTQIDNSWGSEERSLPRKMPFVRGQSFSVWILCEAHCLKVAVDGQHLFEYYHRLRNLPTINRLEVGGDIQLTHVQT
